# Experimental data published in IntAct's records for PubMed 24255178.
# B1: Sarcolemmal membrane-associated protein (Homo sapiens), Q14BN4 (parent)
# chain: MPSALAIFTCRPNSHPFQERHVYLDEPIKIGRSVARCRPAQNNATFDCKVLSRNHALVWFDHKTGKFYLQDTKSSNGTFINSQRLSRGSEESPPCEILSGDIIQFGVDVTENTRKVTHGCIVSTIKLFLPDGMEARLRSDVIHAPLPSPVDKVAANTPSMYSQELFQLSQYLQEALHREQMLEQKLATLQRLLAITQEASDTSWQALIDEDRLLSRLEVMGNQLQACSKNQTEDSLRKELIALQEDKHNYETTAKESLRRVLQEKIEVVRKLSEVERSLSNTEDECTHLKEMNERTQEELRELANKYNGAVNEIKDLSDKLKVAEGKQEEIQQKGQAEKKELQHKIDEMEEKEQELQAKIEALQADNDFTNERLTALQVRLEHLQEKTLKECSSLEHLLSKSGGDCTFIHQFIECQKKLIVEGHLTKAVEETKLSKENQTRAKESDFSDTLSPSKEKSSDDTTDAQMDEQDLNEPLAKVSLLKDDLQGAQSEIEAKQEIQHLRKELIEAQELARTSKQKCFELQALLEEERKAYRNQVEESTKQIQVLQAQLQRLHIDTENLREEKDSEITSTRDELLSARDEILLLHQAAAKVASERDTDIASLQEELKKVRAELERWRKAASEYEKEITSLQNSFQLRCQQCEDQQREEATRLQGELEKLRKEWNALETECHSLKRENVLLSSELQRQEKELHNSQKQSLELTSDLSILQMSRKELENQVGSLKEQHLRDSADLKTLLSKAENQAKDVQKEYEKTQTVLSELKLKFEMTEQEKQSITDELKQCKNNLKLLREKGNNKPWPWMPMLAALVAVTAIVLYVPGLARASP
# partner: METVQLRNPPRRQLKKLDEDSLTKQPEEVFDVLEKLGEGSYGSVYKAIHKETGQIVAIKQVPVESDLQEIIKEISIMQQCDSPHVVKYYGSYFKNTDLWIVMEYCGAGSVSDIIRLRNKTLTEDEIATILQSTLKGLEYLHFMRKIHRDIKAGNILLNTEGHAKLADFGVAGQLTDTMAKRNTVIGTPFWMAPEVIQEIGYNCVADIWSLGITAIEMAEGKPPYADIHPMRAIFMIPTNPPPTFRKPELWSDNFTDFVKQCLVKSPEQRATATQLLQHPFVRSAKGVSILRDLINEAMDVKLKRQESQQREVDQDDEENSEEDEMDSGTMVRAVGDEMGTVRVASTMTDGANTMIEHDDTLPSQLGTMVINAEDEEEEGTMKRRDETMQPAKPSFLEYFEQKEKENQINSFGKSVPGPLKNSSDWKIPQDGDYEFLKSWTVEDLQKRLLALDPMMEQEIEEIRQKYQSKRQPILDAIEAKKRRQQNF
# B2: Sarcolemmal membrane-associated protein (Homo sapiens), Q14BN4 (parent)
# chain: B1 chain
# partner: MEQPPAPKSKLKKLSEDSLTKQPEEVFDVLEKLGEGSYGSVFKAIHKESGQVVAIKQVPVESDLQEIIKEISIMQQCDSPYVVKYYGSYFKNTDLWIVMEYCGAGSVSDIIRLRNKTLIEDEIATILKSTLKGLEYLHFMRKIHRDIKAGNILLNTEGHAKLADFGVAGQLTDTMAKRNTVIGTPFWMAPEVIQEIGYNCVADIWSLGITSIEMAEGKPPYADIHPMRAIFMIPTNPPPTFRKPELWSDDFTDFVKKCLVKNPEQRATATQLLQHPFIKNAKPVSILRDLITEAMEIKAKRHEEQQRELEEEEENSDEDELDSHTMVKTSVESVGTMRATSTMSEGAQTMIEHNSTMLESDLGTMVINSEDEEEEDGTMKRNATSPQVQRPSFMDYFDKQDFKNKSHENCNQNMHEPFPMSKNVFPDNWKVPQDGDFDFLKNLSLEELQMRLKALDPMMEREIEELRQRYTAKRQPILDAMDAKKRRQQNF
# B3: Serine/threonine-protein kinase 3 (Homo sapiens), Q13188 (parent)
# chain: B2 partner
# partner: B1 chain
# Variants of: B1
# Conditions: with stk4_human STK4, Q13043
row,effect of a mutation on the interaction,Variant
1,decreasing interaction,H55A
2,decreasing interaction,R32A

# Variants of: B2
# Conditions: with stk3_human STK3, Q13188
row,effect of a mutation on the interaction,Variant
1,decreasing interaction,H55A
2,decreasing interaction,R32A

# Variants of: B3
# Conditions: with slmap_human SLMAP, Q14BN4
row,effect of a mutation on the interaction,Variant
1,decreasing interaction,MEQPPAPKSKLKKLSEDSLTKQPEEVFDVLEKLGEGSYGSVFKAIHKESGQVVAIKQVPVESDLQEIIKEISIMQQCDSPYVVKYYGSYFKNTDLWIVMEYCGAGSVSDIIRLRNKTLIEDEIATILKSTLKGLEYLHFMRKIHRDIKAGNILLNTEGHAKLADFGVAGQLTDTMAKRNAVIGTPFWMAPEVIQEIGYNCVADIWSLGITSIEMAEGKPPYADIHPMRAIFMIPTNPPPTFRKPELWSDDFTDFVKKCLVKNPEQRATATQLLQHPFIKNAKPVSILRDLITEAMEIKAKRHEEQQRELEEEEENSDEDELDSHTMVKTSVESVGTMRATSTMSEGAQTMIEHNSTMLESDLGTMVINSEDEEEEDGTMKRNATSPQVQRPSFMDYFDKQDFKNKSHENCNQNMHEPFPMSKNVFPDNWKVPQDGDFDFLKNLSLEELQMRLKALDPMMEREIEELRQRYTAKRQPILDAMDAKKRRQQNF [T180A]
